{"source": "paper PMC5752445", "about": "“Secretory leukocyte protease inhibitor (SLPI) as a potential target for inhibiting metastasis of triple-negative breast cancers” (Oncotarget, 2017)", "binders": {"B1": {"name": "VP16-SLPI fusion protein (pACT-SLPI) (natural protein, UniProt P03973 1-132, looked up)", "chain": "MKSSGLFPFLVLLALGTLAPWAVEGSGKSFKAGVCPPKKSAQCLRYKKPECQSDWQCPGKKRCCPDTCGIKCLDPVDTPNPTRRKPGKCPVTYGQCLMLNPPNFCEMDGQCKRDLKCCMGMCGKSCVSPVKA", "notes": "the legend names only pACT constructs of both; source: HEK293T, transiently transfected, mammalian two-hybrid fusion"}}, "molecular_target": "T1, GAL4-Rb fusion protein (pBIND-Rb) (UniProt P06400 1-928)", "T1 construct": "source: HEK293T, transiently transfected, mammalian two-hybrid fusion", "T1 sequence (looked up)": "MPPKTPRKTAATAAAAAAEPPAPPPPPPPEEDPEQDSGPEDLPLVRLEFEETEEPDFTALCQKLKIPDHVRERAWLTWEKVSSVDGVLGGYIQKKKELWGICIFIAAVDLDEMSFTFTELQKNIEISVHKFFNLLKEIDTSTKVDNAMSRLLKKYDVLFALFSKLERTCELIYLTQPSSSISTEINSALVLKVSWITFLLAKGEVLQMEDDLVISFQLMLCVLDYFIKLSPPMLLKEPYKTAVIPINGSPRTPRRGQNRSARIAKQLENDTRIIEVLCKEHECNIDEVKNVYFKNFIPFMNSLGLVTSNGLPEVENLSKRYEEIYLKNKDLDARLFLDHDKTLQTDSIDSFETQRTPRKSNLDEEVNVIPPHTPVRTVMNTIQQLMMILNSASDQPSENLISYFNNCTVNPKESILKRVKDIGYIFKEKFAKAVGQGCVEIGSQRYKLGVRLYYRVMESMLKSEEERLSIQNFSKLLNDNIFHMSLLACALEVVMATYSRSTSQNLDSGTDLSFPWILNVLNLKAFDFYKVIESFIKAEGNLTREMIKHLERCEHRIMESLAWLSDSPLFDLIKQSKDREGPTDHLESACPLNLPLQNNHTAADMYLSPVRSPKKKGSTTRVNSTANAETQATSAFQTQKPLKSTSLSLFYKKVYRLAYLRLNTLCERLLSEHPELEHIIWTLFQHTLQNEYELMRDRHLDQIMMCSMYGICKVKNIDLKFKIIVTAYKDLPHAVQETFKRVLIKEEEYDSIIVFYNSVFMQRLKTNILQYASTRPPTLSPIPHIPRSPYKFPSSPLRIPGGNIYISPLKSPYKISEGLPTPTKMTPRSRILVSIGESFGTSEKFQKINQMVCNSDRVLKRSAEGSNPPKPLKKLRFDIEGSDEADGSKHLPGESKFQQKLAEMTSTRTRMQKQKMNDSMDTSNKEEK", "assay": "two-hybrid; mammalian two-hybrid in HEK293T: pBIND (GAL4 DNA-binding domain) and pACT (VP16 activation domain) fusions with pG5luc reporter; luciferase read 48 h after transfection; negative controls pBIND and pACT vectors", "settings": "partners not purified", "data": [{"binder": "B1", "values": [{"measurement": "fold activation of the reporter over the negative controls", "result": "~7", "unit": "times"}]}]}
